From IntAct's records for PubMed 26385923

B1: Mitochondrial antiviral-signaling protein (Homo sapiens), Q7Z434 (parent)
chain: MPFAEDKTYKYICRNFSNFCNVDVVEILPYLPCLTARDQDRLRATCTLSGNRDTLWHLFNTLQRRPGWVEYFIAALRGCELVDLADEVASVYQSYQPRTSDRPPDPLEPPSLPAERPGPPTPAAAHSIPYNSCREKEPSYPMPVQETQAPESPGENSEQALQTLSPRAIPRNPDGGPLESSSDLAALSPLTSSGHQEQDTELGSTHTAGATSSLTPSRGPVSPSVSFQPLARSTPRASRLPGPTGSVVSTGTSFSSSSPGLASAGAAEGKQGAESDQAEPIICSSGAEAPANSLPSKVPTTLMPVNTVALKVPANPASVSTVPSKLPTSSKPPGAVPSNALTNPAPSKLPINSTRAGMVPSKVPTSMVLTKVSASTVPTDGSSRNEETPAAPTPAGATGGSSAWLDSSSENRGLGSELSKPGVLASQVDSPFSGCFEDLAISASTSLGMGPCHGPEENEYKSEGTFGIHVAENPSIQLLEGNPGPPADPDGGPRPQADRKFQEREVPCHRPSPGALWLQVAVTGVLVVTLLVVLYRRRLH
partner: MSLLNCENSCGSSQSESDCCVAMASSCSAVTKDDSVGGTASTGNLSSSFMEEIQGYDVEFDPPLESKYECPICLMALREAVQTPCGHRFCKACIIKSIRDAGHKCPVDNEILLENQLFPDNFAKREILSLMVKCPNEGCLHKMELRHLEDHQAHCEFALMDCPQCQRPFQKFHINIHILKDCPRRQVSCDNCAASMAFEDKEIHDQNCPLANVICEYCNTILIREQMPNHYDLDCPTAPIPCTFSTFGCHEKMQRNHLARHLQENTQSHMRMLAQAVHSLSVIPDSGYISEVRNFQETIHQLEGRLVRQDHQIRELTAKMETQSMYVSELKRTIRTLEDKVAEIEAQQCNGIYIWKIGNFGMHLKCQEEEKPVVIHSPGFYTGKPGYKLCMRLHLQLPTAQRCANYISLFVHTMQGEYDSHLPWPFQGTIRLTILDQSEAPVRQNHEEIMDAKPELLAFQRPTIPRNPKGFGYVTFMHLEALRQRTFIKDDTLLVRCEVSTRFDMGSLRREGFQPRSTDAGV

Variants of: B1
Details: with traf6_human TRAF6, Q9Y4K3

| Variant | effect of a mutation on the interaction |
| --- | --- |
| Y460A | disrupting interaction strength |
| Y460E | decreasing interaction strength |
| P455D | disrupting interaction strength |
| E457A | disrupting interaction strength |
